A short description of the series: soluble on expression in E. coli; label from the status in PepcDB or PDB records.
As to “MAHHHHHHMASGGSVIGVKYNGGVLLACDTLLSYGSLAKWPNIPRMKLVGAYTVMCATGDYADFQEMTTMIENHVNRQQMYGGGALTPNEVFCYLQRHVYHKRSQFEPCLCRFVVAGCHGGEPFLGGVDDVGTRWTDDCVAAGYGAYIALPLLRQALEKPGGLTREEAIRVIKDCLRVLFYRECRAINKFQIADATSDMVSIGEPFEVETNWEYDGFCFEKTAIIR”, the “soluble on expression in E. coli” value is “not soluble”.
Consider “MDALTDSGSDPLLSAALGSPIHHAILSMDDEVDGNCDDVDDISPESHHDNHFIDFTDDLVVQTERNLSKKGRTSNRNARQGYDNYATLTNLQPLPPISTVTSKSTKVQRPSPSPNFYFPTSSNSSYDMKYEEEEDDCEGITHSSSSPSDFSNHGTDLNHPFSASSFDSFDVTTVSTTATSTIMNSTDKFIARIQEADSTTKSPKGTSPAALMHGHCEEDFDDGEELNTKELALQIAAELKRYSIPQAIFAERVLCRSQGTLSDLLRNPKPWSKLKSGRETFRRMAKWLEEPEFQRMSALRLAACKRKEEHTTPNSPQMVVPKKTRLVFSDIQRRTLQAIFRETKRPSREMQITISQQLNLDPTTVANFFMNARRRGHDLKQETSESEERSEEPSIHFEHSASSSSASSSSSSSMQLDNYICDINTINILEEPSPEPREIKYSMQLLENELDFPANILEP”, for which the “soluble on expression in E. coli” value is “not soluble”.
For “MSLVRMRVGKFDYLNNFLPYYFLNEKVEIVEANPREMASMLLSGRIDYAPVPAFFYLKNRERLRHYEFCVASEGKVLSVVVVSRKKELDDGSIAVTPHSLTSVNLLKILLAERGMKNMLVEVNTAKASEMLELCPHALVIGDEAIKARMIYKVVMDLGEEWYELTSLPAVFGISASLKETNAEEMDRKILMATEEGYRRFDEVVRAAEKAFKMPREFLEEYFRTLKFRLSSKERRGLDEFEKYCRDYGLLEEGHHHHHH”, the “soluble on expression in E. coli” value is “not soluble”.
Take “MGSDKIHHHHHHIASQENCSNKEDLTNRAEDFQSDFVKTMDIIKEHHVAYGNSNARNMLEVREQILQEKGFDDIYVQKKHAENCTAIAELPRVLAKIDELKNTGDEKTVLEYVSRGLLAGNVFDWGAKEVVKMMNSESGLTFQTAIDHVENRPWLFDGFDSFYKKHKEYKSVLIFVDNSGFDYILGIIPFARELLRNGSRVIICANTSPALNDLTYREMVELAPELKNADSDLAKFIDSNQMMFVQTGQESPCMDARRVHQDLNETVKKFNTDLVVIEGMGRALHTNFNVQFKCDSLKAAVIKTQWLADRLGGKMFSVVFKHE”: the “soluble on expression in E. coli” value is “not soluble”.
The entry for “YSFIGSPVFSREFNISEMREYYLSFFEARGHTRINRYPVVARWRDDIYLTIASIADFQPFVTSGQVPPPANPLTISQPCIRLNDLDSVGRSGRHLTNFEMMAHHAFNRRDNEIYWKEHTLELCDELLNSLKVNPLAVTYKEEPWAGGGNAGPCVEVIVHGLELATLVFMDLKTDKKGDIEIKGETYSKMDNYIVDTGYGLERFVWASRGSPTIYDALFPGIVNELMGLAGIEHELNDSEYANI” is “not soluble”.
Then “MGSDKIHHHHHHMATPEFKYQKPFPMGDDTTEYYLLTKEYVSVDKFGDHDVLKVEPEALRLLARTAFHDIAFYLRPEHQQQVARILSDPEASENDKFVALTFLRNAEVSAKGQLPFCQDTGTAIILGKKGQQVWTGGHDEEQLSHGVYDTYTQENLRYSQNAPLDMYKEVNTGCNLPAQIDLMAVDGMEYDFLCIAKGGGSANKTYLYQETKALLNPKTLVNFLVDKMSSLGTAACPPYHIAFVIGGTSAETNLKTVKLASAKYYDNLPTSGNEGGRAFRDVELEKEVLEAAYHLGLGAQFGGKYFAHDVRIIRLPRHGASCPVGMGVSCSADRNIKAKINKDGIWIEKMETNPTRLIPESMREGTEGTVVKVDLNRPMPEILRELSQYPVSTRLSLSGTIIVGRDIAHAKLKERIDRGEGLPDYIKNHPIYYAGPAKTPKGMPSGSFGPTTAGRMDSYVDLFQSHGGSMVMIAKGNRSQQVTDACKKYGGFYLGSVGGPAAILAQDSIKKVECLEYPELGMEAIWKIEVEDFPAFILVDDKGNDFFTQIREKCKGCALH”, with “not soluble”; and “MGSDKIHHHHHHMNKLKIGTSGWVYKHWMDIFYPPNLPSDQQLSFYAQHFATVEINFSFYRLPERSVFETWHKQTPSNFLFAVKGSRYLTHMKKLKDPIEPLSRIMERASGLQEKLGPILFQFPHTWHINIERLQPFLELLQTYPKQKFTVEFRHSSWLIPQVYQLLETAGVGLCLPVSPTVPLDICLTAPWTYIRMHSGQWNVGYTDEELSTWVERIRSFLMQEIDVYVYFNNDPDGNAIRDAQRLYCLLGSC”, with “not soluble”; and “MMRTVQLRTLRPCIRAQQQPVRPSTSATAAAATAPAPARKCPSSLFAKLGGREAVEAAVDKFYNKIVADPTVSTYFSNTDMKVQRSKQFAFLAYALGGASEWKGKDMRTAHKDLVPHLSDVHFQAVARHLSDTLTELGVPPEDITDAMAVVASTRTEVLNMPQQ”, with “soluble”.
Then “MSLQPPFSILFVDDDEMSRNHFARAMSADYKVYVAQSADEAITVLGKHASEIAVLVTDFRMPGRDGDELLREVAHEYPQIVRILVTAYADKDMLLQTVNTGDVFRIIEKPLRTDMVREVLHLATARYTERETRQQRLLAMDETLAFLAHELNTPLATISLFARSVENDVAEQYDPERQREIGLAAKSMLNNAQYCLTLISSFWATVHKSGGQKSASGGGTRAVRATRLIATLLDTYPFVASQRDWVKVDVEGDFVVHAMPNCVALVLSSLLSNALRALDGGSAPVLRLEVVAFPEPEIRIRDNGPGIAPEVKARLLQDPVTTYAGAGGHGMGMIFCNRIMQSFGGCLRIESTVGAGTTVTMGFPGFNSRMHSADEGHHHHHH”, with “soluble”.
“MSSSVLSVAKFDLKKMKTVYLKVDMEYDNRKNAALAILSKLSRDLLKICSNFGGCLARPQRDLCTIMLIIDSDKLENEHLVKHLKEHHMTAFEYIFTKKIKIQIGECFVQDGFLWWKQTNLPRIRNLKFRKKFKIKNKISEIHTHCSSEGNVYIKFSAEMIRIHPFDHWILDSDERFHDFNSGPISRRIRPRWVSCLPKLGKGRIVKIHRKIPETAPFESYDQMKSYWKKTKYEFVFQYGYDLPPSEPEVYYDVLFHNGETMLYPLYCVLTGTPEVLENRVGKTMTSEALALFLKAFKEASIVICGSVLAPEDQDCQAVKAYLDVMSMSAINSSKLKKEEKVTRKSSGGGHEEHQKPYEIRKIYPKIPVGVKRSISSSSQSGLPIVKKARPGFSVSVD”: the “soluble on expression in E. coli” value was “not soluble”.
Then “MSLSSANGGHVDQSDHLALLPPNVRKKGRPTLVLDLDATLFYTSAELLNTPLDYFDMGEESTYRYLYLRPYALDFLGWASTVFEVIIWTAAMESYAEPRIRATEIDRYADVVLYRGACDMIDGSLVKNLAKLGRPLSDMIIVDDNPVSYALNVELAYPIPPFSGEEDDLELLRLVPILRKVLELSSLKRGIYKTIFSEGHHHHHH”, with “soluble”; and “MTTETQADRTQQAVGRIIGSIGVVTTQTTGRHQGILTSWVSQASFTPPGIMLAIPGEFDAYGLAGQNKAFVLNLLQEGRSVRRHFDHQPLPKDGDNPFSRLEHYSTQNGCLILAEALAYLECLVQSWSNIGDHVLVYATVQAGQVLQPNGITAIRHRKSGGQYLEHHHHHH”, with “not soluble”; and “MTLDANSAPVRDMASAHFSPGEDCRRKIRDLCRQARISVDICVFTISDDQLSDEIRACHQRGVAVRVISDSEKQFDVGSDIAALREAGVPVRIDDTPFHMHHKFAVFDGRTLLNGSFNWTRSATTGNEENLLVIDHPQLVASYLKEFNELWSRYAPRLEHHHHHH”, with “not soluble”.
Then “QMTARDVYLPVAAQPSVDTLVGMSQQAEDRGYDRVWLPETWGRDAVTTLTSIAEHTSTVGLGSSILNVYSRSPALLGQTAATLQEVSDGRFRAGVGPSGPIVIEGWHGREFESPLKYTRETVDIMKQVLSGETVDYDGDIFSLSGFRLRCEPPEPAPPVDAGGLGPKSVELAGRFADGWHALMLTADGLRDRLEDFEHGADLGDRDRADQRVTLSLTCCAMDDREQARELARQHVAFYIGGMGTFYRDALARQGYEDTAYEIAEQWGSGNKGAAVDAISDELLDSIAVAGTPEDCRDRIAQFEDIDGVDAINISFPRAAERDTIDTTIDVL”, with “not soluble”.
The entry for “MSYRYMRMILMFDMPTDTAEERKAYRKFRKFLLSEGFIMHQFSIYSKLLLNNTANNAMIGRLREHNPNKGNITLLTVTEKQFARMIYLHGERNNCIANSDERLVFLGEAFDES” is “not soluble”; for “MKLTLKNLSMAIMMSTIVMGSSAMAADSNEKIVIAHRGASGYLPEHTLPAKAMAYAQGADYLEQDLVMTKDDNLVVLHDHYLDRVTDVADRFPDRARKDGRYYAIDFTLDEIKSLKFTEGFDIENGKKVQTYPGRFPMGKSDFRVHTFEEEIEFVQGLNHSTGKNIGIYPEIKAPWFHHQEGKDIAAKTLEVLKKYGYTGKDDKVYLQCFDADELKRIKNELEPKMGMELNLVQLIAYTDWNETQQKQPDGSWVNYNYDWMFKPGAMKQVAEYADGIGPDYHMLIEETSQPGNIKLTGMVQDAQQNKLVVHPYTVRSDKLPEYTPDVNQLYDALYNKAGVNGLFTDFPDKAVKFLNKE” it is “soluble”; for “MSLEYENEIMDLINDYDMLRVLKHFTVAHVDYAKNITRYTEIPQIRVRAYLERLKEMGLLDYYTNTSIKRTEAKLKKSAEVHKHHTYYQINKKAEAVLKEITPKLYVKVLGKEKLELLCSRKVRKTSPDRCTGLQAMGLIDKCFDLTELGREVFEAALRMQAIRCQDEGHHHHHH” it is “soluble”.
“MDASTHFRDRGALITGLMSGALDAVDAVARTRPAVEVLGLLVPVDGLMEDYLNGRAREGLGVTRSEFEPWRRQLLAVVAALLERWVGDDADLWRALAMRAGSYCGTVVELVDSVVRPEHADPASWAGRAPRWPRGVDASAVLLALAPPGIAEAFLDDCVTNAAAAGVLTRMLDRGPLHPLFVEYALGSLGTEAMRASLNRNPAYAIAQLRDQVLRERTDIAVLEHAYFAPPTDRALRVGLVRLAEAVGGFRPRFISRLESHAEDIASLEPLLVCSDPQLVHWVLRRVNATLKVPAMRWAAYATLALTAGPEPVWALEQERVGTLSRMAEPVRASMSTGSVAPILAAAGAAPVTIGPAGSAIELGAPLIEPWPYTELICEHVEGDGHRADPVDKPAADRPSSTRLGRSAEV”: the “soluble on expression in E. coli” value is given as “not soluble”.
Then “MPCVQAQYSPSPPGSTYATQTYGSEYTTEIMNPDYAKLTMDLGSTGIMATATTSLPSFSTFMEGYPSSCELKPSCLYQMPPSGPRPLIKMEEGREHGYHHHHHHHHHHHHHHQQQQPSIPPPSGPEDEVLPSTSMYFKQSPPSTPTTPGFPPQAGALWDDELPSAPGCIAPGPLLDPQMKAVPPMAAAARFPIFFKPSPPHPPAPSPAGGHHLGYDPTAAAALSLPLGAAAAAGSQAAALEGHPYGLPLAKRTATLTFPPLGLTASPTASSLLGESPSLPSPPNRSSSSGEGTCAVCGDNAACQHYGVRTCEGCKGFFKRTVQKNAKYVCLANKNCPVDKRRRNRCQYCRFQKCLSVGMVKEVVRTDSLKGRRGRLPSKPKSPLQQEPSQPSPPSPPICMMNALVRALTDATPRDLDYSRYCPTDQATAGTDAEHVQQFYNLLTASIDVSRSWAEKIPGFTDLPKEDQTLLIESAFLELFVLRLSIRSNTAEDKFVFCNGLVLHRLQCLRGFGEWLDSIKDFSLNLQSLNLDIQALACLSALSMITERHGLKEPKRVEELCNKITSSLKDHQRKGQALEPSEPKVLRALVELRKICTQGLQRIFYLKLEDLVSPPSVIDKLFLDTLPF”, with “soluble”.
Then “GSALRELKVCLLGDTGVGKSSIMWRFVEDSFDPNINPTIGASFMTKTVQYQNELHKFLIWDTAGLERFRALAPMYYRGSAAAIIVYDITKEETFSTLKNWVRELRQHGPPSIVVAIAGNKCDLTDVREVMERDAKDYADSIHAIFVETSAKNAININELFIEISRRIPST”, with “soluble”.
